This is an account of results in article PMC5503513, “Tandem hnRNP A1 RNA recognition motifs act in concert to repress the splicing of survival motor neuron exon 7”.

In data set [1] the target is T1, hnRNP A1 RRM2 (UniProt P09651 95-196). The data set is described as follows: NMR titration; fast exchange; ITC: 10 mM NaPi pH 6.5, 10 mM 2-mercaptoethanol, 30 C, protein titrated into RNA; NMR: 10 mM NaPi pH 6.5, 1 mM DTT (303 K stated for UP1-R140A:ISS-N1-u25g). Conditions: protein: recombinant; single strand.
Data set [2] has as its target T2, hnRNP A1 RRM1 (UniProt P09651 2-97). The data set is described as above. Conditions: protein: recombinant; single strand.
Data set [3] has as its target T3, hnRNP A1 RRM2 R140A (UniProt P09651 95-196, R140A). In words: ITC; 10 mM sodium phosphate pH 6.5, 10 mM 2-mercaptoethanol, no added salt, 30 C; RNA 5-10 uM in the cell; 1:1 fit. Conditions: none in PDB 5MPL. A general note: In ITC the heat of successive injections is recorded.
In data set [4] the target is T1, hnRNP A1 RRM2. The data set is described as follows: ITC; ITC: 10 mM NaPi pH 6.5, 10 mM 2-mercaptoethanol, 30 C, protein titrated into RNA; NMR: 10 mM NaPi pH 6.5, 1 mM DTT (303 K stated for UP1-R140A:ISS-N1-u25g). Conditions: protein: recombinant; single strand.
In the next data set the target is hnRNP A1 RRM1 F23A (UniProt P09651 2-97, F23A). The data set is described as above. The following applies: protein: recombinant; single strand.
Data set [5] concerns the target T3, hnRNP A1 RRM2 R140A. The description is as above. Conditions: protein: recombinant; single strand.
For another data set, the target named is hnRNP A1 RRM2 E176Q (UniProt P09651 95-196, E176Q). The data set is described as above. Conditions: protein: recombinant; single strand.
In data set [6] the target is T2, hnRNP A1 RRM1. The data set is described as above. Conditions: protein: recombinant; single strand.
Data set [7] addresses T4, UP1 R140A (UniProt P09651 1-196, R140A). In words: NMR titration; 1 equivalent RNA; ITC: 10 mM NaPi pH 6.5, 10 mM 2-mercaptoethanol, 30 C, protein titrated into RNA; NMR: 10 mM NaPi pH 6.5, 1 mM DTT (303 K stated for UP1-R140A:ISS-N1-u25g). The following applies: protein: recombinant; single strand.
Data set [8] deals with T4, UP1 R140A. The data set is described as follows: NMR PRE; 1:1 complex; ITC: 10 mM NaPi pH 6.5, 10 mM 2-mercaptoethanol, 30 C, protein titrated into RNA; NMR: 10 mM NaPi pH 6.5, 1 mM DTT (303 K stated for UP1-R140A:ISS-N1-u25g). The following applies: protein: recombinant; label: IA-proxyl spin label on s4U18; single strand.
Data set [9] addresses T5, UP1 (UniProt P09651 1-196). The data set is described as above. Conditions: protein: recombinant; label: IA-proxyl spin label on s4U18; single strand.
Data set [10] addresses T4, UP1 R140A. The data set is described as follows: NMR (intermolecular NOEs, structural model); 1:1 complex; RRM2 on 5' motif, RRM1 on 3' motif; ITC: 10 mM NaPi pH 6.5, 10 mM 2-mercaptoethanol, 30 C, protein titrated into RNA; NMR: 10 mM NaPi pH 6.5, 1 mM DTT (303 K stated for UP1-R140A:ISS-N1-u25g). The following applies: protein: recombinant; single strand.
In data set [11] the target is T2, hnRNP A1 RRM1. In words: NMR titration; intermediate exchange; ITC: 10 mM NaPi pH 6.5, 10 mM 2-mercaptoethanol, 30 C, protein titrated into RNA; NMR: 10 mM NaPi pH 6.5, 1 mM DTT (303 K stated for UP1-R140A:ISS-N1-u25g). The following applies: protein: recombinant; single strand.
Data set [12] concerns the target T5, UP1. The data set is described as follows: NMR titration; broad lines; ITC: 10 mM NaPi pH 6.5, 10 mM 2-mercaptoethanol, 30 C, protein titrated into RNA; NMR: 10 mM NaPi pH 6.5, 1 mM DTT (303 K stated for UP1-R140A:ISS-N1-u25g). The following applies: protein: recombinant; single strand.
Data set [13] concerns the target hnRNP A1 UP1 R1r2 (Homo sapiens, UniProt P09651 2-196, F108A;F150A). In words: ITC; 10 mM sodium phosphate pH 6.5, 10 mM 2-mercaptoethanol, no added salt, 30 C; RNA 5-10 uM in the cell; 1:1 fit. Conditions: extra N-terminal Gly-Gly in PDB 2LYV (left out).
Data set [14] has as its target hnRNP A1 UP1 r1R2 (Homo sapiens, UniProt P09651 2-196, F17A;F59A). The description is as above. The following applies: extra N-terminal Gly-Gly in PDB 2LYV (left out).
The next data set addresses UP1 r1R2 (UniProt P09651 1-196, F17A;F59A). The data set is described as follows: ITC; ITC: 10 mM NaPi pH 6.5, 10 mM 2-mercaptoethanol, 30 C, protein titrated into RNA; NMR: 10 mM NaPi pH 6.5, 1 mM DTT (303 K stated for UP1-R140A:ISS-N1-u25g). Conditions: protein: recombinant; single strand.
Data set [15] concerns the target T3, hnRNP A1 RRM2 R140A. In words: ITC; range, no saturation; ITC: 10 mM NaPi pH 6.5, 10 mM 2-mercaptoethanol, 30 C, protein titrated into RNA; NMR: 10 mM NaPi pH 6.5, 1 mM DTT (303 K stated for UP1-R140A:ISS-N1-u25g). Conditions: protein: recombinant; single strand.
For data set [16], the target named is T2, hnRNP A1 RRM1. The description is as above. The following applies: protein: recombinant; single strand.
For data set [17], the target named is T2, hnRNP A1 RRM1. In words: ITC; 10 mM sodium phosphate pH 6.5, 10 mM 2-mercaptoethanol, no added salt, 30 C; RNA 5-10 uM in the cell; 1:1 fit. Conditions: one extra N-terminal Ala in PDB 5MPG (left out).
Data set [18] addresses T5, UP1. The data set is described as follows: NMR titration; intermediate exchange, both RRMs; ITC: 10 mM NaPi pH 6.5, 10 mM 2-mercaptoethanol, 30 C, protein titrated into RNA; NMR: 10 mM NaPi pH 6.5, 1 mM DTT (303 K stated for UP1-R140A:ISS-N1-u25g). The following applies: protein: recombinant; single strand.
Another data set deals with hnRNP A1 RRM2 M186A (UniProt P09651 95-196, M186A). In words: ITC; 10 mM sodium phosphate pH 6.5, 10 mM 2-mercaptoethanol, no added salt, 30 C; RNA 5-10 uM in the cell; 1:1 fit. Conditions: none in PDB 5MPL.
The target in the next data set is hnRNP A1 RRM2 Y167F (UniProt P09651 95-196, Y167F). In words: ITC; ITC: 10 mM NaPi pH 6.5, 10 mM 2-mercaptoethanol, 30 C, protein titrated into RNA; NMR: 10 mM NaPi pH 6.5, 1 mM DTT (303 K stated for UP1-R140A:ISS-N1-u25g). The following applies: protein: recombinant; single strand.
Sequence of hnRNP A1 RRM2 Y167F (P09651 95-196 Y167F): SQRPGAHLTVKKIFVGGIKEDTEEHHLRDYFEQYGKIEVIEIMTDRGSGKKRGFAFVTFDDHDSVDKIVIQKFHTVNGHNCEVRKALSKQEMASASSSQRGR

T3 sequence (P09651 95-196 R140A): as the sequence (P09651 95-196 Y167F) above, with R46A, F73Y counted along it
Sequence of hnRNP A1 RRM2 E176Q (P09651 95-196 E176Q): as the sequence (P09651 95-196 Y167F) above, with F73Y, E82Q counted along it
Sequence of hnRNP A1 UP1 r1R2 (P09651 2-196 F17A/F59A): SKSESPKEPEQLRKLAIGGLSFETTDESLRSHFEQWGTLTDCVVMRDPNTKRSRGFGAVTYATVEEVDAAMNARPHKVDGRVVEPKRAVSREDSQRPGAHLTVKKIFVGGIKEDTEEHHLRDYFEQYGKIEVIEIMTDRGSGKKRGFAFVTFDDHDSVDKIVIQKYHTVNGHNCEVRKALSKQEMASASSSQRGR
Sequence of UP1 r1R2 (P09651 1-196 F17A/F59A): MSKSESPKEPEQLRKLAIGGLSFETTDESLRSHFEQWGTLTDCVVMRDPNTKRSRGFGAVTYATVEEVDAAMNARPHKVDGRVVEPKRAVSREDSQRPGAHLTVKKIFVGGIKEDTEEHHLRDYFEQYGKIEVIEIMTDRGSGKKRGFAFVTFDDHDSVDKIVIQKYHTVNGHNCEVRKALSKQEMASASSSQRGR
Sequence of hnRNP A1 UP1 R1r2 (P09651 2-196 F108A/F150A): as the sequence (P09651 2-196 F17A/F59A) above, with A16F, A58F, F107A, F149A counted along it
T2 sequence (P09651 2-97): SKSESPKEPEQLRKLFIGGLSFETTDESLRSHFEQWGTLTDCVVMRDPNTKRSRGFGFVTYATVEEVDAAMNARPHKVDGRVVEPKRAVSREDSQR
T5 sequence (P09651 1-196): as the sequence (P09651 1-196 F17A/F59A) above, with A17F, A59F counted along it
T1 sequence (P09651 95-196): as the sequence (P09651 95-196 Y167F) above, with F73Y counted along it
T4 sequence (P09651 1-196 R140A): as the sequence (P09651 1-196 F17A/F59A) above, with A17F, A59F, R140A counted along it
Sequence of hnRNP A1 RRM1 F23A (P09651 2-97 F23A): as the sequence (P09651 2-97) above, with F22A counted along it
Sequence of hnRNP A1 RRM2 M186A (P09651 95-196 M186A): as the sequence (P09651 95-196 Y167F) above, with F73Y, M92A counted along it

Turning to CAGCAU (ssRNA), the binding result in the data set with hnRNP A1 RRM2 [1] and with hnRNP A1 RRM1 [2] was “binds” in each case.
By Kd is commonly meant a measure of binding affinity in units of concentration. For UAGGUC (ssRNA), the Kd worked out at 685 ± 40 nM with hnRNP A1 RRM2 R140A [3]; 98 ± 8 nM in the data set with hnRNP A1 RRM2 [4]; 602 ± 34 nM with hnRNP A1 RRM1 F23A; 685 ± 40 nM with hnRNP A1 RRM2 R140A [5]; 227 ± 14 nM with hnRNP A1 RRM2 E176Q; 625 ± 35 nM in the data set with hnRNP A1 RRM1 [6].
With UUUUAGGUC (ssRNA), the Kd was found to be 130 ± 8 nM with hnRNP A1 RRM1 F23A and 159 ± 9 nM with hnRNP A1 RRM1 [6].
Regarding GGACCAGGAUUAUGAAAGUGC (ssRNA) [ISS-N1-c14g], the binding result with UP1 R140A [7] is “binds”.
Take UUAGGGA (ssRNA): the binding result with hnRNP A1 RRM2 [1] and in the data set with hnRNP A1 RRM1 [2] was “binds” each time.
ACCAGCAUUAUGAAAGGUA (XNA, 4-thio-U at position 18) [modified ISS-N1 (spin-labeled)]: the binding result with UP1 R140A [8] and in the data set with UP1 [9] was “binds” throughout.
For GGACCAGCAUUAUGAAAGGGA (ssRNA) [ISS-N1-u25g], in the data set with UP1 R140A [10], the binding result is “binds”.
With UUUUAGGU (ssRNA), in the data set with hnRNP A1 RRM1 [11], the binding result is “binds”.
As for UCAGGG (ssRNA), the binding result with hnRNP A1 RRM2 [1] is listed as “binds”.
As to GGACCAGGAUUAUGAAAGGGC (ssRNA) [ISS-N1-14g25g], the binding result in the data set with UP1 R140A [7] and in the data set with UP1 [12] was “binds” in each case.
Consider CGUAGGU (ssRNA), for which the binding result in the data set with hnRNP A1 RRM1 [11] is listed as “binds”.
Turning to UCAGGUC (ssRNA), the Kd came out at 862 ± 47 nM with hnRNP A1 RRM2 R140A [3]; 171 ± 12 nM with hnRNP A1 UP1 R1r2 [13]; 178 ± 11 nM in the data set with hnRNP A1 UP1 r1R2 [14]; 129 ± 11 nM with hnRNP A1 RRM2 [4]; 178 ± 11 nM with UP1 r1R2; 862 ± 47 nM with hnRNP A1 RRM2 R140A [5]. The values for the Kd in the data set with hnRNP A1 RRM2 E176Q and in the data set with hnRNP A1 RRM1 [6] were 132 ± 29 nM and 543 ± 33 nM, respectively.
Turning to UGAGUU (ssRNA), the Kd with hnRNP A1 RRM2 R140A [15] is roughly 2240 nM; with hnRNP A1 RRM1 [16] it was roughly 5200 nM; with hnRNP A1 RRM2 R140A [3], roughly 2650 nM; in the data set with hnRNP A1 UP1 R1r2 [13] it was 654 ± 50 nM; with hnRNP A1 RRM1 [17], roughly 3450 nM; in the data set with hnRNP A1 UP1 r1R2 [14], 625 ± 41 nM. Also, the Kd with hnRNP A1 RRM2 [4] was found to be 546 ± 31 nM; in the data set with UP1 r1R2, 625 ± 41 nM; in the data set with hnRNP A1 RRM2 E176Q it was 324 ± 20 nM.
On to GGACCAGCAUUAUGAAAGUGA (ssRNA) [ISS-N1 WT], for which the binding result in the data set with UP1 [18] and with UP1 R140A [7] was “binds” throughout.
With UAAGUU (ssRNA), the Kd with hnRNP A1 RRM2 R140A [15] was roughly 2240 nM; with hnRNP A1 RRM1 [16], roughly 5200 nM; with hnRNP A1 RRM2 R140A [3], roughly 3300 nM; in the data set with hnRNP A1 UP1 R1r2 [13] it was 658 ± 44 nM; in the data set with hnRNP A1 RRM1 [17], roughly 4610 nM; with hnRNP A1 UP1 r1R2 [14], 685 ± 42 nM. The Kd in the data set with hnRNP A1 RRM2 [4] came out at 543 ± 31 nM; in the data set with UP1 r1R2, 685 ± 42 nM; in the data set with hnRNP A1 RRM2 E176Q, 429 ± 27 nM.
As to UGAAAGU (ssRNA), the binding result with hnRNP A1 RRM2 [1] and with hnRNP A1 RRM1 [2] was “binds” each time.
Turning to UCAGUU (ssRNA), the Kd was roughly 2240 nM with hnRNP A1 RRM2 R140A [15]; roughly 2490 nM with hnRNP A1 RRM2 R140A [3]; 1630 nM with hnRNP A1 RRM2 M186A; 578 ± 40 nM in the data set with hnRNP A1 UP1 R1r2 [13]; greater than 10000 nM in the data set with hnRNP A1 RRM1 [17]; 637 ± 39 nM with hnRNP A1 UP1 r1R2 [14]. The Kd in the data set with hnRNP A1 RRM2 [4] amounted to 541 ± 33 nM; with UP1 r1R2, 637 ± 39 nM; in the data set with hnRNP A1 RRM2 Y167F it was 513 ± 30 nM; with hnRNP A1 RRM2 E176Q it was 237 ± 15 nM.
